Measured values taken from PMC6544907.

Columns and labels:
[1] = biological target: human plasma plasminogen (human); test: SPR
[2] = biological target: PAM_(NS223), recombinant full-length PAM of GAS strain NS223 (emm91) (Streptococcus pyogenes (GAS) strain NS223); test: AUC
[3] = biological target: PAM_(NS88.2), recombinant full-length PAM of GAS strain NS88.2 (emm98.1) (Streptococcus pyogenes (GAS) strain NS88.2); test: AUC
[4] = biological target: PAM_(SS1572), recombinant full-length PAM of GAS strain SS1572 (emm223) (Streptococcus pyogenes (GAS) strain SS1572); test: AUC
[5] = biological target: PAM_(SS1448), recombinant full-length PAM of GAS strain SS1448 (emm86.2) (Streptococcus pyogenes (GAS) strain SS1448); test: AUC
[6] = biological target: PAM_(SS1574), recombinant full-length PAM of GAS strain SS1574 (emm224) (Streptococcus pyogenes (GAS) strain SS1574); test: AUC
[7] = biological target: PAM_(NS455), recombinant full-length PAM of GAS strain NS455 (emm52) (Streptococcus pyogenes (GAS) strain NS455); test: AUC
[8] = biological target: PAM on cells of GAS strain SS1574 (Streptococcus pyogenes (endogenous in strain SS1574)) (UniProt P49054); test: flow cytometry on cells

Substance | koff [1] [s⁻¹] | Kd [1] [nM] | kon [1] [M⁻¹ s⁻¹] | other results
PAM_(AP53_short) (residues 42-175 of PAM_(AP53)) (domain or fragment) | 0.00077 |  |  | 
PAM_(NS223), recombinant full-length PAM of GAS strain NS223 (emm91) (natural protein) | 0.00033 | 1.4 | 240000 | stoichiometry N [2]: 2
PAM_(NS88.2), recombinant full-length PAM of GAS strain NS88.2 (emm98.1) (natural protein) | 0.00023 | 1.2 |  | stoichiometry N [3]: 2
PAM_(SS1572), recombinant full-length PAM of GAS strain SS1572 (emm223) (natural protein) | 0.00059 | 4.9 | 120000 | stoichiometry N [4]: 2
PAM_(SS1448), recombinant full-length PAM of GAS strain SS1448 (emm86.2) (natural protein) | 0.001 | 28 | 36000 | stoichiometry N [5]: 2
PAM_(SS1574), recombinant full-length PAM of GAS strain SS1574 (emm224) (natural protein) | 0.00011 | 1.1 |  | stoichiometry N [6]: 2
PAM_(NS455), recombinant full-length PAM of GAS strain NS455 (emm52) (natural protein) | 0.00017 |  | 540000 | stoichiometry N [7]: 2
PAM_(AP53), recombinant full-length PAM of GAS strain AP53 (emm53) (natural protein) | 0.00056 | 1.6 | 340000 | 
human plasma plasminogen (natural protein) |  |  |  | amount of hPg bound, fold of strain AP53 [8]: < 2 fold
